Measured values from publication PMC12888920, “MMP-9 regulates disulphide isomerase activity of TGM2 to enhance fusion glycoprotein-mediated syncytium formation of respiratory syncytial virus” (Protein & Cell, 2025).

Target: T1, purified human MMP-9 (human, UniProt P14780 20-707)
T1 construct: human matrix metalloproteinase 9; May be the same protein as MMP-9-6x His; Methods are in the supplementary file; source: purified
Test: BLI; ForteBio Octet; who was immobilised and buffer not told in the text shown; three biological replicates
Conditions: both partners purified

T1 sequence (P14780 20-707): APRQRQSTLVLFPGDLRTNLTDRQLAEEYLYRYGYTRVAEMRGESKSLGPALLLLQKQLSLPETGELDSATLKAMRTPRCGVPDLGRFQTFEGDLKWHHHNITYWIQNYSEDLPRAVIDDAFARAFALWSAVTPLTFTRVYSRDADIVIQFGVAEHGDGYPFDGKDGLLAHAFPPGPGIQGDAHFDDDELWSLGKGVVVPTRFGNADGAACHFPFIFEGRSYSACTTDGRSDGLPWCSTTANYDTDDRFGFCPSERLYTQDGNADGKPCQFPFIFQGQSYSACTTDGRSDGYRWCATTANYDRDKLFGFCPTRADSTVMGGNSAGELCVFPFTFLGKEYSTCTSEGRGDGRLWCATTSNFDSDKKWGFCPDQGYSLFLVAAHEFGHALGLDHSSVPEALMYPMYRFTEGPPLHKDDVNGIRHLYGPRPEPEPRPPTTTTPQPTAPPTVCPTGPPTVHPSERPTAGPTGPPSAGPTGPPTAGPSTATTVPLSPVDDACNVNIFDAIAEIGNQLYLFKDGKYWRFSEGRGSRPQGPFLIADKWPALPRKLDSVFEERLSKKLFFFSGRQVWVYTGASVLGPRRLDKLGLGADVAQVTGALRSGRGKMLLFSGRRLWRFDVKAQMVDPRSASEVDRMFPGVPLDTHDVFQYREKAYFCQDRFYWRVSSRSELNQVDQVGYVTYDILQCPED

B1: purified human TGM2 (transglutaminase 2) (enzyme, UniProt P21980 1-687, looked up)
chain: MAEELVLERCDLELETNGRDHHTADLCREKLVVRRGQPFWLTLHFEGRNYEASVDSLTFSVVTGPAPSQEAGTKARFPLRDAVEEGDWTATVVDQQDCTLSLQLTTPANAPIGLYRLSLEASTGYQGSSFVLGHFILLFNAWCPADAVYLDSEEERQEYVLTQQGFIYQGSAKFIKNIPWNFGQFEDGILDICLILLDVNPKFLKNAGRDCSRRSSPVYVGRVVSGMVNCNDDQGVLLGRWDNNYGDGVSPMSWIGSVDILRRWKNHGCQRVKYGQCWVFAAVACTVLRCLGIPTRVVTNYNSAHDQNSNLLIEYFRNEFGEIQGDKSEMIWNFHCWVESWMTRPDLQPGYEGWQALDPTPQEKSEGTYCCGPVPVRAIKEGDLSTKYDAPFVFAEVNADVVDWIQQDDGSVHKSINRSLIVGLKISTKSVGRDEREDITHTYKYPEGSSEEREAFTRANHLNKLAEKEETGMAMRIRVGQSMNMGSDFDVFAHITNNTAEEYVCRLLLCARTVSYNGILGPECGTKYLLNLNLEPFSEKSVPLCILYEKYRDCLTESNLIKVRALLVEPVINSYLLAERDLYLENPEIKIRILGEPKQKRKLVAEVSLQNPLPVALEGCTFTVEGAGLTEEQKTVEIPDPVEAGEEVKVRMDLLPLHMGLHKLVVNFESDKLKAVKGFRNVIIGPA
notes: human transglutaminase 2; the purified protein's band is called full-length TGM2 (100 kDa) in the cleavage assay; The printed 100 kDa for full-length TGM2 is larger than the native protein; also called recombinant TGM2; source: purified
Kd: 1980 nM
